Reference: paper PMC10397247
Like-named read-outs stand apart in the source and are kept apart here.

Assays:
Experiment in all cases: two-hybrid library CCmax;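 also: natural log of median RNA to DNA barcode read ratio; higher means stronger binding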
4H2837-AA = biological target: T1, 4H2837-AA
T1 chain: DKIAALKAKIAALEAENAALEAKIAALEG

4H2883-AA = biological target: T2, 4H2883-AA
T2 chain: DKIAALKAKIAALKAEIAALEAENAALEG

4H2944-AA = biological target: T3, 4H2944-AA; conditions: mean of both orientations
T3 chain: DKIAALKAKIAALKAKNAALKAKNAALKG

4H2949-AA = biological target: T4, 4H2949-AA; conditions: mean of both orientations
T4 chain: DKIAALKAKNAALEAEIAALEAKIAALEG

4H3112-AA = biological target: T5, 4H3112-AA; conditions: mean of both orientations
T5 chain: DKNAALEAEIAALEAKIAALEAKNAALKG

4H317-AA = biological target: T6, 4H317-AA; conditions: mean of both orientations
T6 chain: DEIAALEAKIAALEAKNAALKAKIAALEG

4H3343-AA = biological target: T7, 4H3343-AA; conditions: mean of both orientations
T7 chain: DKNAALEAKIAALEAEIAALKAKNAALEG

4H335-AA = biological target: T8, 4H335-AA; conditions: mean of both orientations
T8 chain: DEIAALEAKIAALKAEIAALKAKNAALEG

4H342-AA = biological target: T9, 4H342-AA; conditions: mean of both orientations
T9 chain: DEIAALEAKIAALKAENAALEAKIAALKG

4H3427-AA = biological target: T10, 4H3427-AA; conditions: mean of both orientations
T10 chain: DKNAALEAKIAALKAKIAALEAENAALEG

4H3606-AA = biological target: T11, 4H3606-AA; conditions: mean of both orientations
T11 chain: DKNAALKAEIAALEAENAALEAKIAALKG

4H3627-AA = biological target: T12, 4H3627-AA; conditions: mean of both orientations
T12 chain: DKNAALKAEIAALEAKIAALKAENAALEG

4H3655-AA = biological target: T13, 4H3655-AA; conditions: mean of both orientations
T13 chain: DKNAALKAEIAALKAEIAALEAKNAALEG

4H3844-AA = biological target: T14, 4H3844-AA; conditions: mean of both orientations
T14 chain: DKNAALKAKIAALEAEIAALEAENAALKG

4H3921-AA = biological target: T15, 4H3921-AA; conditions: mean of both orientations
T15 chain: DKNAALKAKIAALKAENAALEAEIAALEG

4H429-AA = biological target: T16, 4H429-AA; conditions: mean of both orientations
T16 chain: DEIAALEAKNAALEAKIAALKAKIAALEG

4H454-AA = biological target: T17, 4H454-AA; conditions: mean of both orientations
T17 chain: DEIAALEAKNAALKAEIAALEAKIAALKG

4H48-AA = biological target: T18, 4H48-AA; conditions: mean of both orientations
T18 chain: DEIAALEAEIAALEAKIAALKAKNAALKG

4H566-AA = biological target: T19, 4H566-AA; conditions: mean of both orientations
T19 chain: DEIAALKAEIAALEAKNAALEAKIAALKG

4H605-AA = biological target: T20, 4H605-AA; conditions: mean of both orientations
T20 chain: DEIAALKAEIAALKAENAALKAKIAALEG

4H678-AA = biological target: T21, 4H678-AA; conditions: mean of both orientations
T21 chain: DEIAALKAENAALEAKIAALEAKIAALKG

4H717-AA = biological target: T22, 4H717-AA; conditions: mean of both orientations
T22 chain: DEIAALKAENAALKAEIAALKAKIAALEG

4H780-AA = biological target: T23, 4H780-AA; conditions: mean of both orientations
T23 chain: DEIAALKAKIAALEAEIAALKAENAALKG

4H794-AA = biological target: T24, 4H794-AA; conditions: mean of both orientations
T24 chain: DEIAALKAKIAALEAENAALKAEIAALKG

4H881-AA = biological target: T25, 4H881-AA; conditions: mean of both orientations
T25 chain: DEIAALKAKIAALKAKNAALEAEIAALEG

4H906-AA = biological target: T26, 4H906-AA; conditions: mean of both orientations
T26 chain: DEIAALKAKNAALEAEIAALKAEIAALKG

4H993-AA = biological target: T27, 4H993-AA; conditions: mean of both orientations
T27 chain: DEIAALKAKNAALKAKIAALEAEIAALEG

4H2754-AA = biological target: T28, 4H2754-AA
T28 chain: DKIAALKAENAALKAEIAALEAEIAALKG

4H3009-AA = biological target: T29, 4H3009-AA
T29 chain: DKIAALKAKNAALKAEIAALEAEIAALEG

4H3016-AA = biological target: T30, 4H3016-AA; conditions: mean of both orientations
T30 chain: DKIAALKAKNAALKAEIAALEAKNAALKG

4H310-AA = biological target: T31, 4H310-AA; conditions: mean of both orientations
T31 chain: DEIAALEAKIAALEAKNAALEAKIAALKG

4H3120-AA = biological target: T32, 4H3120-AA; conditions: mean of both orientations
T32 chain: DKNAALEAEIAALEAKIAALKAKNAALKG

4H3130-AA = biological target: T33, 4H3130-AA; conditions: mean of both orientations
T33 chain: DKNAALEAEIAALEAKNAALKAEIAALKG

4H3165-AA = biological target: T34, 4H3165-AA; conditions: mean of both orientations
T34 chain: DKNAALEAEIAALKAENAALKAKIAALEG

4H3381-AA = biological target: T35, 4H3381-AA; conditions: mean of both orientations
T35 chain: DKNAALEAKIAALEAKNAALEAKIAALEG

4H3395-AA = biological target: T36, 4H3395-AA
T36 chain: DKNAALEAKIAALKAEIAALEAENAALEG

4H3410-AA = biological target: T37, 4H3410-AA; conditions: mean of both orientations
T37 chain: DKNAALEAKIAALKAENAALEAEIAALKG

4H3590-AA = biological target: T38, 4H3590-AA; conditions: mean of both orientations
T38 chain: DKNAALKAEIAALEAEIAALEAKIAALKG

4H3697-AA = biological target: T39, 4H3697-AA; conditions: mean of both orientations
T39 chain: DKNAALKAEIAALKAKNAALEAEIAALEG

4H3753-AA = biological target: T40, 4H3753-AA; conditions: mean of both orientations
T40 chain: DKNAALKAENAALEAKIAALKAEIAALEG

4H3865-AA = biological target: T41, 4H3865-AA; conditions: mean of both orientations
T41 chain: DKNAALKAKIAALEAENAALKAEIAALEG

4H458-AA = biological target: T42, 4H458-AA; conditions: mean of both orientations
T42 chain: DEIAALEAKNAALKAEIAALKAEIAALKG

4H485-AA = biological target: T43, 4H485-AA; conditions: mean of both orientations
T43 chain: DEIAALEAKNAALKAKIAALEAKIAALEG

4H536-AA = biological target: T44, 4H536-AA; conditions: mean of both orientations
T44 chain: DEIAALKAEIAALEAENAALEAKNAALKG

4H570-AA = biological target: T45, 4H570-AA; conditions: mean of both orientations
T45 chain: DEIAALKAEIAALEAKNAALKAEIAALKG

4H629-AA = biological target: T46, 4H629-AA; conditions: mean of both orientations
T46 chain: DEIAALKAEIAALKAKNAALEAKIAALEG

4H710-AA = biological target: T47, 4H710-AA; conditions: mean of both orientations
T47 chain: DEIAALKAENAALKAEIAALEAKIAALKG

4H745-AA = biological target: T48, 4H745-AA; conditions: mean of both orientations
T48 chain: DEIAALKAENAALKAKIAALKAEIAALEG

4H797-AA = biological target: T49, 4H797-AA; conditions: mean of both orientations
T49 chain: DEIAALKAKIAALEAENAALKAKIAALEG

4H850-AA = biological target: T50, 4H850-AA; conditions: mean of both orientations
T50 chain: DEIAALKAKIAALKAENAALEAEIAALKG

4H891-AA = biological target: T51, 4H891-AA
T51 chain: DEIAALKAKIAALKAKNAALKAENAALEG

4H909-AA = biological target: T52, 4H909-AA; conditions: mean of both orientations
T52 chain: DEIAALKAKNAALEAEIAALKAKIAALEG

4H930-AA = biological target: T53, 4H930-AA; conditions: mean of both orientations
T53 chain: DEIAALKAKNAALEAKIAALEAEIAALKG

4H94-AA = biological target: T54, 4H94-AA; conditions: mean of both orientations
T54 chain: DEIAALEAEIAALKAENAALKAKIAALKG

APC9096-AA = biological target: T55, APC9096-AA
T55 chain: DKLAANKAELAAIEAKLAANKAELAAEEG

APC9319-AA = biological target: T56, APC9319-AA; conditions: mean of both orientations
T56 chain: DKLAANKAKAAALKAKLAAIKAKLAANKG

DKIAALKAKIAALEAENAALEAKIAALEG [4H2837-AA]
interaction score (4H2837-AA): 1.42
interaction score (4H2883-AA): -0.938
interaction score (4H2944-AA): 0.691
interaction score (4H2949-AA): -0.836
interaction score (4H3112-AA): 1.23
interaction score (4H317-AA): 1.61
interaction score (4H3343-AA): -1.14
interaction score (4H335-AA): -0.534
interaction score (4H342-AA): 2.11
interaction score (4H3427-AA): -2.38
interaction score (4H3606-AA): -1.14
interaction score (4H3627-AA): -1.3
interaction score (4H3655-AA): -0.923
interaction score (4H3844-AA): -1.21
interaction score (4H3921-AA): -1.49
interaction score (4H429-AA): 0.476
interaction score (4H454-AA): -0.102
interaction score (4H48-AA): 0.24
interaction score (4H566-AA): 1.66
interaction score (4H605-AA): 0.402
interaction score (4H678-AA): -1.18
interaction score (4H717-AA): -0.861
interaction score (4H780-AA): -1.81
interaction score (4H794-AA): 0.0291
interaction score (4H881-AA): 1.65
interaction score (4H906-AA): -0.599
interaction score (4H993-AA): 1.44

DKIAALKAENAALKAEIAALEAEIAALKG [4H2754-AA]
interaction score (4H2754-AA): 2.15
interaction score (4H2837-AA; mean of both orientations): -0.727
interaction score (4H2883-AA; mean of both orientations): -0.999
interaction score (4H2944-AA): -1.87
interaction score (4H2949-AA): -1.05
interaction score (4H3112-AA): -1.52
interaction score (4H317-AA): -1.23
interaction score (4H3343-AA): -1.26
interaction score (4H335-AA): -0.745
interaction score (4H342-AA): 0.684
interaction score (4H3427-AA): -1.7
interaction score (4H3606-AA): 0.688
interaction score (4H3627-AA): -1.36
interaction score (4H3655-AA): -1.51
interaction score (4H3844-AA): -1.53
interaction score (4H3921-AA): -0.732
interaction score (4H429-AA): 0.608
interaction score (4H454-AA): 2.24
interaction score (4H48-AA): -1.2
interaction score (4H566-AA): -1.09
interaction score (4H605-AA): -1.51
interaction score (4H678-AA): 1.82
interaction score (4H717-AA): 0.757
interaction score (4H780-AA): -1.74
interaction score (4H794-AA): -1.89
interaction score (4H881-AA): 1.13
interaction score (4H906-AA): -0.0753
interaction score (4H993-AA): 1.43

DKIAALKAKNAALKAEIAALEAEIAALEG [4H3009-AA]
interaction score (4H3009-AA): 2.25
interaction score (4H3016-AA): -1.16
interaction score (4H310-AA): -0.567
interaction score (4H3120-AA): -0.531
interaction score (4H3130-AA): -0.967
interaction score (4H3165-AA): -1.43
interaction score (4H3381-AA): -1.54
interaction score (4H3395-AA): -1.73
interaction score (4H3410-AA): 0.321
interaction score (4H3590-AA): 0.389
interaction score (4H3697-AA): 0.129
interaction score (4H3753-AA): 1.09
interaction score (4H3865-AA): -1.6
interaction score (4H458-AA): 0.956
interaction score (4H485-AA): 1.22
interaction score (4H536-AA): -1.35
interaction score (4H570-AA): -0.427
interaction score (4H629-AA): 1.67
interaction score (4H710-AA): 1.94
interaction score (4H745-AA): 1.77
interaction score (4H797-AA): -1.65
interaction score (4H850-AA): 1.63
interaction score (4H891-AA): -1.57
interaction score (4H909-AA): 0.523
interaction score (4H930-AA): -0.0462
interaction score (4H94-AA): -0.794

DKLAANKAELAAIEAKLAANKAELAAEEG [APC9096-AA]
interaction score (APC9096-AA): -2.06
interaction score (APC9319-AA): -1.81
